These are literature values, as cited in patent publication US20250304973.

This series addresses alpha-thrombin (native) (Homo sapiens) (UniProt P00734+P00734). The settings on record: CITED; linker not given.

For the substance HD1-22 bivalent (HD1 linked to HD22), the Kd (as a rule, the free concentration of one partner at which half of the binding sites on the other are occupied at equilibrium, for simple one-to-one binding) is 650 pM.
